The text below walks through data of patent US20160083449A1 (FRED HUTCHINSON CANCER RESEARCH CENTER, published 2016).

In assay [1] the target is T1, WT-1^126-134 peptide/MHC tetramer (…, SEQ ID NO.:16, with HLA-A2), PE-conjugated (human).
T1 construct: Tetramer reagent used for staining of T cells; the source and the construct of the HLA-A2 monomers are not described; also called WT1 tetramers; WT-1 tetramer
Description: flow cytometry of transduced PBMCs; share of tetramer-positive cells within the transduced population (Vβ+ cells minus the endogenous Vβ+ cells of the untransduced control); drawn table. Background: In flow cytometry, cells or beads pass a laser one at a time.

The target in assay [2] is T2, Wilms tumor protein 1 (WT-1) peptide on HLA-A*02:01 (human).
T2 peptide: RMFPNAPYL
Description: Kd or kinetics.

B1: TCRP20, WT-1^126-134-specific TCR of T cell clone P20 (TCR, V domains shown)
V domain 1: QKEVEQNSGPLSVPEGAIASLNCTYSDRGSQSFFWYRQYSGKSPELIMSIYSNGDKEDGRFTAQLNKASQYVSLLIRDSQPSDSATYLCAVLEGQKLLFARGTMLKVDL
V domain 2: DVKVTQSSRYLVKRTGEKVFLECVQDMDHENMFWYRQDPGLGLRLIYFSYDVKMKEKGDIPEGYSVSREKKERFSLILESASTNQTSMYLCATSHQPQHFGDGTRLSILE
modifications: Engineered cysteine pair (alpha T179C, beta S185C, precursor numbering) gives an extra interchain disulfide.
notes: On the T cell clone
Turning to B1, the “% transduced Vβ+ tet+” value in assay [1] is 51.2%.

B2: P20 TCR (TCRP20) (TCR, V domains shown)
Valpha: QKEVEQNSGPLSVPEGAIASLNCTYSDRGSQSFFWYRQYSGKSPELIMSIYSNGDKEDGRFTAQLNKASQYVSLLIRDSQPSDSATYLCAVLEGQKLLFARGTMLKVDL
Vbeta: DVKVTQSSRYLVKRTGEKVFLECVQDMDHENMFWYRQDPGLGLRLIYFSYDVKMKEKGDIPEGYSVSREKKERFSLILESASTNQTSMYLCATSHQPQHFGDGTRLSIL
As for B2, in assay [2], the binding result is given as “recognises”.

B3: P1 TCR (TCRP1) (TCR, V domains shown)
Valpha: AQKVTQAQTEISVVEKEDVTLDCVYETRDTTYYLFWYKQPPSGELVFLIRRNSFDEQNEISGRYSWNFQKSTSSFNFTITASQVVDSAVYFCALSEAHRDSNYQLIWGAGTKLIIKP
Vbeta: ETGVTQTPRHLVMGMTNKKSLKCEQHLGHNAMYWYKQSAKKPLELMFVYNFKEQTENNSVPSRFSPECPNSSHLFLHLHTLQPEDSALYLCASSQDEQFLYNEQFFGPGTRLTVL
For the molecule B3, the binding result in assay [2] was “recognises”.
